Measurements as given in patent publication US20050123900A1.

Key:
[1] = target: HIV-1 Env BR029.2 on 293 cells (HIV-1 isolate BR029.2); experiment: cell-based or functional assay
[2] = target: HIV-1 Env RW020.5 on 293 cells (HIV-1 isolate RW020.5); experiment: cell-based or functional assay
[3] = target: HIV-1 Env HT593.1 on 293 cells (HIV-1 isolate HT593.1); experiment: cell-based or functional assay
[4] = target: HIV-1 Env NL4-3 on 293 cells (HIV-1 isolate NL4-3); experiment: cell-based or functional assay
[5] = target: HIV-1 Env TH022.4 on 293 cells (HIV-1 isolate TH022.4); experiment: cell-based or functional assay
[6] = target: HIV-1 Env BR025.9 on 293 cells (HIV-1 isolate BR025.9); experiment: cell-based or functional assay
[7] = target: HIV-1 Env UG037.8 on 293 cells (HIV-1 isolate UG037.8); experiment: cell-based or functional assay
[8] = target: HIV-1 Env US005.11 on 293 cells (HIV-1 isolate US005.11); experiment: cell-based or functional assay
[9] = target: HIV-1 Env UG975.10 on 293 cells (HIV-1 isolate UG975.10); experiment: cell-based or functional assay
[10] = target: HIV-1 Env 89.6 on 293 cells (HIV-1 isolate 89.6) (UniProt Q73372); experiment: cell-based or functional assay
[11] = target: HIV-1 Env US715.6 on 293 cells (HIV-1 isolate US715.6); experiment: cell-based or functional assay
[12] = target: HIV-1 Env #9-131 on pseudotype virus (HIV-1 isolate #9-131); experiment: cell-based or functional assay
[13] = target: HIV-1 Env VI1273 on pseudotype virus (HIV-1 isolate VI1273); experiment: cell-based or functional assay
[14] = target: HIV-1 Env VI1399 on pseudotype virus (HIV-1 isolate VI1399); experiment: cell-based or functional assay
[15] = target: HIV-1 Env GX-E14 on pseudotype virus (HIV-1 isolate GX-E14); experiment: cell-based or functional assay
[16] = target: HIV-1 Env R2 on pseudotype virus (HIV-1 isolate R2); experiment: cell-based or functional assay
[17] = target: HIV-1 Env GX-C44 on pseudotype virus (HIV-1 isolate GX-C44); experiment: cell-based or functional assay
[18] = target: HIV-1 Env #8-4/49 on pseudotype virus (HIV-1 isolate #8-4/49); experiment: cell-based or functional assay
[19] = target: HIV-1 Env Z2Z6 on pseudotype virus (HIV-1 isolate Z2Z6); experiment: cell-based or functional assay
[20] = target: HIV-1 Env MN-TCLA on pseudotype virus (HIV-1 isolate MN-TCLA) (UniProt P05877); experiment: cell-based or functional assay
[21] = target: HIV-1 Env TH966 on pseudotype virus (HIV-1 isolate TH966); experiment: cell-based or functional assay
[22] = target: HIV-1 Env #6-4/41 on pseudotype virus (HIV-1 isolate #6-4/41); experiment: cell-based or functional assay
[23] = target: HIV-1 Env #4-4/116 on pseudotype virus (HIV-1 isolate #4-4/116); experiment: cell-based or functional assay
[24] = target: sCD4-gp120 89.6 complex (HIV-1 isolate 89.6) (UniProt Q73372); experiment: ELISA, sCD4-gp120 complex coated directly on plate, soluble Fab titrated, Langmuir fit
[25] = target: sCD4-gp120 JR-FL complex (HIV-1 isolate JR-FL) (UniProt P01730); experiment: as above
[26] = target: sCD4-gp120 HXB2 complex (HIV-1 isolate HXB2) (UniProt P04578); experiment: as above
[27] = target: gp120 89.6 (HIV-1 isolate 89.6) (UniProt Q73372); experiment: ELISA, antigen coated directly on plate, soluble Fab titrated, Langmuir fit
[28] = target: gp120 JR-FL (HIV-1 isolate JR-FL) (UniProt P20871); experiment: as above
[29] = target: gp120 HXB2 (HIV-1 isolate HXB2) (UniProt P04578); experiment: as above
[30] = target: HIV-1 Env V5 on pseudotype virus (HIV-1 isolate V5); experiment: cell-based or functional assay
[31] = target: HIV-1 Env P37 on pseudotype virus (HIV-1 isolate P37); experiment: cell-based or functional assay
[32] = target: HIV-1 Env VI14004 on pseudotype virus (HIV-1 isolate VI14004); experiment: cell-based or functional assay
[33] = target: HIV-1 Env 92RW020.5 on pseudotype virus (HIV-1 isolate 92RW020.5); experiment: cell-based or functional assay
[34] = target: gp140 UG024.2 (HIV-1 isolate UG024.2); experiment: ELISA, soluble Fab titrated on Env (direct coat or D7324 capture not given)
[35] = target: gp140 HT593.1 (HIV-1 isolate HT593.1); experiment: as above
[36] = target: gp140 ZR001.3 (HIV-1 isolate ZR001.3); experiment: as above
[37] = target: gp140 89.6 (HIV-1 isolate 89.6) (UniProt Q73372); experiment: as above
[38] = target: gp140 R2 (HIV-1 isolate R2); experiment: as above
[39] = target: gp140 Bal-L (HIV-1 isolate Bal-L); experiment: as above
[40] = target: gp140 BR019.10 (HIV-1 isolate BR019.10); experiment: as above
[41] = target: gp140 UG037.8 (HIV-1 isolate UG037.8); experiment: as above
[42] = target: gp140 CM243 (HIV-1 isolate CM243); experiment: as above
[43] = target: gp140 MW965.26 (HIV-1 isolate MW965.26); experiment: as above
[44] = target: gp140 UG975-10 (HIV-1 isolate UG975-10); experiment: as above
[45] = target: sCD4-gp120 IIIB complex (HIV-1 isolate IIIB) (UniProt P01730); experiment: ELISA, sCD4-gp120 complex coated directly on plate, soluble Fab titrated, Langmuir fit
[46] = target: gp120 IIIB (HIV-1 isolate IIIB); experiment: ELISA, antigen coated directly on plate, soluble Fab titrated, Langmuir fit
[47] = target: gp120 IIIB (HIV-1 isolate IIIB); experiment: ELISA, soluble Fab titrated on Env (gp120 by the footnote; direct coat or D7324 capture not specified)

## Fab X5
[1]
  % of fusion inhibition (syncytia count), Fab at 50 µg/ml: 36%
[2]
  % of fusion inhibition (syncytia count), Fab at 50 µg/ml: 45%
[3]
  % of fusion inhibition (syncytia count), Fab at 50 µg/ml: 27%
[4]
  % of fusion inhibition (syncytia count), Fab at 50 µg/ml: 83%
[5]
  % of fusion inhibition (syncytia count), Fab at 50 µg/ml: 43%
[6]
  % of fusion inhibition (syncytia count), Fab at 50 µg/ml: 71%
[7]
  % of fusion inhibition (syncytia count), Fab at 50 µg/ml: 34%
[8]
  % of fusion inhibition (syncytia count), Fab at 50 µg/ml: 72%
[9]
  % of fusion inhibition (syncytia count), Fab at 50 µg/ml: 19%
[10]
  % of fusion inhibition (syncytia count), Fab at 50 µg/ml: 93%
[11]
  % of fusion inhibition (syncytia count), Fab at 50 µg/ml: 28%

## Fab m14
[12]
  M14 Concentration (µg/ml) of Fab, 50% neutralization endpoint, pseudovirus assay: 100 µg/mL
[13]
  M14 Concentration (µg/ml) of Fab, 50% neutralization endpoint, pseudovirus assay: 3.1 µg/mL
[14]
  M14 Concentration (µg/ml) of Fab, 50% neutralization endpoint, pseudovirus assay: > 100 µg/mL
[1]
  % of fusion inhibition (syncytia count), Fab at 50 µg/ml: 71%
[2]
  % of fusion inhibition (syncytia count), Fab at 50 µg/ml: 31%
[3]
  % of fusion inhibition (syncytia count), Fab at 50 µg/ml: 78%
[15]
  M14 Concentration (µg/ml) of Fab, 50% neutralization endpoint, pseudovirus assay: 100 µg/mL
[16]
  M14 Concentration (µg/ml) of Fab, 50% neutralization endpoint, pseudovirus assay: 2.24 µg/mL
[17]
  M14 Concentration (µg/ml) of Fab, 50% neutralization endpoint, pseudovirus assay: 8.8 µg/mL
[4]
  % of fusion inhibition (syncytia count), Fab at 50 µg/ml: 96%
[18]
  M14 Concentration (µg/ml) of Fab, 50% neutralization endpoint, pseudovirus assay: 35.4 µg/mL
[19]
  M14 Concentration (µg/ml) of Fab, 50% neutralization endpoint, pseudovirus assay: 50 µg/mL
[5]
  % of fusion inhibition (syncytia count), Fab at 50 µg/ml: 100%
[20]
  M14 Concentration (µg/ml) of Fab, 50% neutralization endpoint, pseudovirus assay: 2.24 µg/mL
[6]
  % of fusion inhibition (syncytia count), Fab at 50 µg/ml: 71%
[7]
  % of fusion inhibition (syncytia count), Fab at 50 µg/ml: 100%
[21]
  M14 Concentration (µg/ml) of Fab, 50% neutralization endpoint, pseudovirus assay: > 100 µg/mL
[8]
  % of fusion inhibition (syncytia count), Fab at 50 µg/ml: 95%
[22]
  M14 Concentration (µg/ml) of Fab, 50% neutralization endpoint, pseudovirus assay: > 100 µg/mL
[9]
  % of fusion inhibition (syncytia count), Fab at 50 µg/ml: 22%
[23]
  M14 Concentration (µg/ml) of Fab, 50% neutralization endpoint, pseudovirus assay: > 100 µg/mL
[10]
  % of fusion inhibition (syncytia count), Fab at 50 µg/ml: 100%
[11]
  % of fusion inhibition (syncytia count), Fab at 50 µg/ml: 35%
[24]
  Kd: 7.3 nM
[25]
  Kd: 1.2 nM
[26]
  Kd: 0.4 nM
[27]
  Kd: 5.4 nM
[28]
  Kd: 0.9 nM
[29]
  Kd: 0.3 nM

## Fab m18
[30]
  M18 Concentration (µg/ml) of Fab, 50% neutralization endpoint, pseudovirus assay: < 2 µg/mL
[12]
  M18 Concentration (µg/ml) of Fab, 50% neutralization endpoint, pseudovirus assay: > 100 µg/mL
[13]
  M18 Concentration (µg/ml) of Fab, 50% neutralization endpoint, pseudovirus assay: 25 µg/mL
[14]
  M18 Concentration (µg/ml) of Fab, 50% neutralization endpoint, pseudovirus assay: > 100 µg/mL
[1]
  % of fusion inhibition (syncytia count), Fab at 50 µg/ml: 86%
[2]
  % of fusion inhibition (syncytia count), Fab at 50 µg/ml: 25%
[3]
  % of fusion inhibition (syncytia count), Fab at 50 µg/ml: 39%
[15]
  M18 Concentration (µg/ml) of Fab, 50% neutralization endpoint, pseudovirus assay: > 100 µg/mL
[16]
  M18 Concentration (µg/ml) of Fab, 50% neutralization endpoint, pseudovirus assay: 1.6 µg/mL
[17]
  M18 Concentration (µg/ml) of Fab, 50% neutralization endpoint, pseudovirus assay: > 25 µg/mL
[4]
  % of fusion inhibition (syncytia count), Fab at 50 µg/ml: 92%
[31]
  M18 Concentration (µg/ml) of Fab, 50% neutralization endpoint, pseudovirus assay: 100 µg/mL
[18]
  M18 Concentration (µg/ml) of Fab, 50% neutralization endpoint, pseudovirus assay: 5 µg/mL
[19]
  M18 Concentration (µg/ml) of Fab, 50% neutralization endpoint, pseudovirus assay: 25 µg/mL
[32]
  M18 Concentration (µg/ml) of Fab, 50% neutralization endpoint, pseudovirus assay: < 2 µg/mL
[5]
  % of fusion inhibition (syncytia count), Fab at 50 µg/ml: 93%
[20]
  M18 Concentration (µg/ml) of Fab, 50% neutralization endpoint, pseudovirus assay: < 1.6 µg/mL
[6]
  % of fusion inhibition (syncytia count), Fab at 50 µg/ml: 86%
[7]
  % of fusion inhibition (syncytia count), Fab at 50 µg/ml: 34%
[33]
  M18 Concentration (µg/ml) of Fab, 50% neutralization endpoint, pseudovirus assay: 3 µg/mL
[21]
  M18 Concentration (µg/ml) of Fab, 50% neutralization endpoint, pseudovirus assay: > 100 µg/mL
[8]
  % of fusion inhibition (syncytia count), Fab at 50 µg/ml: 93%
[22]
  M18 Concentration (µg/ml) of Fab, 50% neutralization endpoint, pseudovirus assay: 100 µg/mL
[9]
  % of fusion inhibition (syncytia count), Fab at 50 µg/ml: 56%
[23]
  M18 Concentration (µg/ml) of Fab, 50% neutralization endpoint, pseudovirus assay: 6.3 µg/mL
[10]
  % of fusion inhibition (syncytia count), Fab at 50 µg/ml: 100%
[11]
  % of fusion inhibition (syncytia count), Fab at 50 µg/ml: 97%
[34]
  EC50: 0.97 nM
[35]
  EC50: 0.25 nM
[36]
  EC50: 1.07 nM
[37]
  EC50: 1.17 nM
[38]
  EC50: 0.13 nM
[39]
  EC50: 0.53 nM
[40]
  EC50: 0.77 nM
[41]
  EC50: 0.83 nM
[42]
  EC50: 116 nM
[43]
  EC50: 0.55 nM
[44]
  EC50: 0.87 nM
[24]
  Kd: 0.9 nM
[45]
  Kd: 0.09 nM
[25]
  Kd: 0.7 nM
[27]
  Kd: 1 nM
[46]
  Kd: 0.08 nM
[28]
  Kd: 0.9 nM
[47]
  EC50: 0.48 nM
